Test [1] addresses HCV 1b E2 construct sf1b-E2 (amino acids 384-661 in pDisplay) (influenza virus; Hepatitis C virus genotype 1b). Nature of the test: GNA capture ELISA, HEK-293 extracts. On the technique in general: In an ELISA, binding on a coated surface is turned into a signal by an enzyme label.
The target of test [2] is HCV 1b E2 deletion construct pDC-644 (Hepatitis C virus genotype 1b). Nature of the test: GNA capture ELISA, HEK-293 extracts.
In test [3] the target is HCV 1b E2 construct sf1b-E2 (amino acids 384-661 in pDisplay) (influenza virus; Hepatitis C virus genotype 1b). Nature of the test: flow cytometry, CHO cells expressing sf1b-E2, 10 ug/ml. (In flow cytometry, cells or beads pass a laser one at a time.)
In test [4] the target is HCV E2 protein of genotype 1a expressed by vaccinia virus construct Q1a (Hepatitis C virus genotype 1a). Nature of the test: competition ELISA; 25 µg/ml competitor against 5 µg/ml biotinylated CBH-5.
Test [5] concerns the target HCV E2 protein of genotype 1b expressed by vaccinia virus construct Q1b (Hepatitis C virus genotype 1b). The test is described as above.
The target in test [6] is HCV E2 protein of genotype 1a expressed by vaccinia virus construct Q1a (Hepatitis C virus genotype 1a). In words: competition ELISA; 20 µg/ml competitor against 2 µg/ml biotinylated CBH-2.
In test [7] the target is HCV E2 protein of genotype 1b expressed by vaccinia virus construct Q1b (Hepatitis C virus genotype 1b). The description is as above.
The target in test [8] is HCV E2 protein of genotype 2a expressed by vaccinia virus construct Q2a (Hepatitis C virus genotype 2a). The test is described as above.
For test [9], the target named is HCV E2 protein of genotype 2b expressed by vaccinia virus construct Q2b (Hepatitis C virus genotype 2b). The test is described as above.
For test [10], the target named is HCV E2 protein of genotype 1a expressed by vaccinia virus construct Q1a (Hepatitis C virus genotype 1a). Nature of the test: competition on GNA-captured E2; 20 µg/ml competitor against biotinylated CBH-4G.
For test [11], the target named is HCV E2 1a protein produced in mammalian cells (Rosa et al.) (Hepatitis C virus genotype 1a). Nature of the test: NOB assay, inhibition of E2 binding to CD81 expressing Molt-4 cells, flow cytometry.
Test [12] concerns the target HCV E2 protein of genotype 1a expressed by vaccinia virus construct Q1a (Hepatitis C virus genotype 1a). In words: competition ELISA; competitor CBH-5 against biotinylated CBH-2.
Test [13] deals with HCV E2 protein of genotype 1b expressed by vaccinia virus construct Q1b (Hepatitis C virus genotype 1b). The test is described as above.
The target in test [14] is HCV E2 protein of genotype 2a expressed by vaccinia virus construct Q2a (Hepatitis C virus genotype 2a). The test is described as above.
Test [15] has as its target HCV E2 protein of genotype 2b expressed by vaccinia virus construct Q2b (Hepatitis C virus genotype 2b). The test is described as above.
The target in test [16] is HCV 1b E2 deletion construct pDC-579 (Hepatitis C virus genotype 1b). In words: flow cytometry, transiently transfected HEK-293 cells, 10 ug/ml.
In test [17] the target is HCV 1b E2 deletion construct pDC-644 (Hepatitis C virus genotype 1b). The description is as above.
Test [18] has as its target HCV 1b E2 deletion construct pDN-447 (Hepatitis C virus genotype 1b) (UniProt P29846). The description is as above.
In test [19] the target is HCV 1b E2 deletion construct pDN-470 (Hepatitis C virus genotype 1b) (UniProt Q9WMX2). The test is described as above.
Test [20] has as its target HCV 1b E2 deletion construct pDN-447 (Hepatitis C virus genotype 1b) (UniProt P29846). Nature of the test: GNA capture ELISA, HEK-293 extracts.
Test [21] concerns the target HCV 1b E2 deletion construct pDN-470 (Hepatitis C virus genotype 1b) (UniProt Q9WMX2). Nature of the test: GNA capture ELISA, HEK-293 extracts.
Test [22] has as its target HCV E2 1a protein produced in mammalian cells (Rosa et al.) (Hepatitis C virus genotype 1a). Nature of the test: NOB assay.
Test [23] concerns the target HCV 1b E2 construct sf1b-E2 (amino acids 384-661 in pDisplay) (influenza virus; Hepatitis C virus genotype 1b). Nature of the test: flow cytometry, CHO cells expressing sf1b-E2.
For test [24], the target named is denatured HCV 1b E2 protein (Q1b) (Hepatitis C virus genotype 1b). In words: GNA capture ELISA, denatured against native E2 (FIG. 9).
Test [25] deals with HCV 1b E2 (Q1b) bound to GST-CD81-LEL (Hepatitis C virus genotype 1b; human) (UniProt P60033). Nature of the test: ELISA, 1b E2 captured by CD81-LEL; 50% of maximum binding.
In test [26] the target is HCV E2 protein of genotype 1a expressed by vaccinia virus construct Q1a (Hepatitis C virus genotype 1a). In words: competition ELISA; competitor CBH-2 against biotinylated CBH-5.
For test [27], the target named is HCV E2 protein of genotype 1b expressed by vaccinia virus construct Q1b (Hepatitis C virus genotype 1b). Described as above.

With HMAb CBH-8E (antibody), the OD in [1] is over 0.5 od; in test [2], 0.1 to 0.5 od. The substance also came in with a mean fluorescence in [3] of 408. In addition, the percent inhibition of biotinylated CBH-5 binding in test [4] and in [5] was 75% each time. The percent inhibition of biotinylated CBH-2 binding in test [6], in [7], in test [8] and in [9] was over 75% in each case. Further, the percent inhibition of biotinylated CBH-4G binding in test [10] was under 50%. Besides, the half-inhibitory concentration (IC50) (as a rule, the concentration at which inhibition is half-maximal) in [11] came out at 8 µg/mL.
Turning to HMAb CBH-5 (antibody), the OD in test [1] and in test [2] was over 0.5 od each time. Further, the mean fluorescence was 546 in test [3]; 2 in [16]; 28 in [17]; 2 in test [18]; 2 in [19]. In addition, the percent inhibition of biotinylated CBH-2 binding in test [12] is 80%; in test [13], 80%; in [14], 80%; in test [15], 80%; in test [6] it was over 75%; in [7], over 75%. Also, the percent inhibition of biotinylated CBH-2 binding in test [8] and in test [9] was over 75% in each case. In addition, the percent inhibition of biotinylated CBH-5 binding in test [4] and in test [5] was 85% in each case. Besides, the percent inhibition of biotinylated CBH-4G binding in [10] was under 50%. Also, the IC50 in [11] is 2 µg/mL.
As for HMAb CBH-8C (antibody), the OD in test [1] and in test [2] was over 0.5 od throughout. In [3], this substance yielded a mean fluorescence of 282. Moreover, the percent inhibition of biotinylated CBH-2 binding in test [6], in test [7], in [8] and in [9] was over 75% throughout. Besides, the percent inhibition of biotinylated CBH-4G binding in test [10] was under 50%. Further, the half-maximal inhibitory concentration (IC50) in [11] amounted to 10 µg/mL.
Turning to HMAb CBH-7 (antibody), the OD in test [1], in test [2], in test [20] and in test [21] was over 0.5 od throughout. The mean fluorescence came to 303 in test [3]; 2 in test [16]; 27 in test [17]; 26 in test [18]; 14 in [19]. Besides, the percent inhibition of biotinylated CBH-2 binding in test [6] turned out to be 60%. Further, in test [10], the percent inhibition of biotinylated CBH-4G binding was under 50%. In [11], the IC50 is 7 µg/mL.
As to HMAb CBH-17 (antibody), the IC50 in test [22] is over 25 µg/mL. Besides, the OD in test [1], in test [20] and in [21] was over 0.5 od each time. This substance showed a fold reduced staining relative to the other HMAbs in test [23] of 10 fold. Further, the mean fluorescence in [3] is 23. In [24], this substance yielded a percent of reactivity retained with denatured E2 of 90%. Moreover, the half-maximal effective concentration (EC50) (commonly the concentration needed to bring the measured effect to its halfway point) in [25] is 3 µg/mL. The percent inhibition of biotinylated CBH-4G binding in test [10] is under 50%.
Consider HMAb CBH-4B (antibody), for which the 50% inhibitory concentration (IC50) in test [22] was over 25 µg/mL. In addition, the OD in test [1], in [2], in test [20] and in test [21] was over 0.5 od in each case. In addition, the mean fluorescence in test [3] was 241; in test [16], 2; in test [17], 18; in test [18], 21; in [19], 9. For the same substance, the half-maximal effective concentration (EC50) in test [25] is 0.4 µg/mL. In [10], this substance returned a percent inhibition of biotinylated CBH-4G binding of under 50%.
For HMAb CBH-2 (antibody), the results for the OD in [1] and in test [2] were over 0.5 od and 0.1 to 0.5 od, respectively. Further, the mean fluorescence in test [3] stood at 338. Besides, the percent inhibition of biotinylated CBH-5 binding in test [26] and in [27] was 50% each time. Further, the percent inhibition of biotinylated CBH-2 binding in test [6], in test [7], in test [8] and in test [9] was over 75% in each case. Besides, the percent inhibition of biotinylated CBH-4G binding in test [10] is under 50%. The substance also gave a concentration for half-maximal inhibition (IC50) in [11] of 5 µg/mL.

Values taken from patent US20060104980A1.
